Data as given in paper PMC2852398, “Metal-Free ALS Variants of Dimeric Human Cu,Zn-Superoxide Dismutase Have Enhanced Populations of Monomeric Species” (PLoS ONE, 2010).

B1: apo A4V SOD1 in the AS-SOD1 (C6A/C111S) background (enzyme)
chain: not shown
notes: human Cu,Zn superoxide dismutase (SOD1), 153-residue subunit; Apo (metal-free) form with the intra-subunit C57-C146 disulfide bond intact; source: BL21-Gold(DE3) PLysS cells, purified (anion exchange QSepharose XL and/or gel filtration Sephacryl 200HR)
B2: apo L106V SOD1 in the AS-SOD1 (C6A/C111S) background (enzyme)
chain: not shown
notes: as for B1
B3: apo S134N SOD1 in the AS-SOD1 (C6A/C111S) background (enzyme)
chain: not shown
notes: as for B1
B4: apo-AS-SOD1 (human Cu,Zn superoxide dismutase, C6A/C111S pseudo-wild-type background, metal-free) (enzyme)
chain: not shown
notes: human Cu,Zn superoxide dismutase (SOD1), 153-residue subunit; Apo (metal-free) form with the intra-subunit C57-C146 disulfide bond intact; also called WT; WT SOD1; source: BL21-Gold(DE3) PLysS cells, purified (anion exchange QSepharose XL and/or gel filtration Sephacryl 200HR)
B5: apo L38V SOD1 in the AS-SOD1 (C6A/C111S) background (enzyme)
chain: not shown
notes: as for B1

Target: the molecule itself
Assay: global analysis of urea unfolding and refolding kinetics (manual-mixing far-UV CD at 230 nm); kinetic traces at 0.25 to 8.75 M urea and 1 to 40 µM protein fit together to 2U = 2M = N2; constants in the absence of urea; step: dimer (N2) to folded monomers (2M); monomer unfolding rate fixed to that of the stable monomeric variants; apo protein; 10 mM potassium phosphate, 1 mM K2EDTA, pH 7.2, 20°C
With B1 the Kd was 123 nM, the koff was 0.0223 s⁻¹ and the kon was 180000 M⁻¹ s⁻¹.
With B2 the Kd was 21 nM, the koff was 0.00151 s⁻¹ and the kon was 73000 M⁻¹ s⁻¹.
Work on B3 yielded a Kd of 1.1 nM, a koff of 0.000222 s⁻¹ and a kon of 200000 M⁻¹ s⁻¹.
Work on B4 yielded a Kd of 0.87 nM, a koff of 0.000745 s⁻¹ and a kon of 860000 M⁻¹ s⁻¹.
B5 gave a Kd of 4.6 nM, a koff of 0.000557 s⁻¹ and a kon of 120000 M⁻¹ s⁻¹.
